Laboratory results from the DeepSol protein solubility set.

Assay: soluble on expression in E. coli; label from the status in PepcDB or PDB records

Sequence | soluble on expression in E. coli
MSLELIPCGWRRYVEFRMTIVNHISPIHSVDKKGWRWFDENTKNWGFKDMIPAVILNNVNVGFLLNGEITIIAEVEVHEFIDTLNASQVEELSDDSSEDLQNKDNVTIEVNGFQVLDSQVDQVNAIFEKHPDLISNFSLKNQHIRNAYMHALLDLTKTLSKSTKELTVEDMNEADNTITDLIKAGLNLDWLRQKFDQALEKQIAYDTRIGELEKQVKKRKLAVTELEADLEKEKAAASASLMLFDEGHHHHHH | not soluble
MDLSAVRFDEKGLVPVVVQDARTGEVLTLAYANREALEETLRTRRSTFFSRSRQALWRKGETSGHTQEVVEVLLDCDGDAVVYRVLPQGPACHTGERTCFHRALLEGEKDLGFVVGQVYATIKERLRTLPEGSYVARMHQAGLDRILKKIGEEAGEVILAAKNQNPEELRHEAADLLFHLLLTLAELGLTPEDLAKTLWERHRPRSPYDGSHGN | soluble
MSLEQYFKRFLGEENAYFDEIHKRAYSYDATKKHYLPDGVLFPRNEEDIARILKFCNENNIIVIPRGSGSGFTGGALAVNGGVVLAFEKHMNKILEIDLENLVAVVQPGVINIHLQKEVAKYGLFYPPDPASMEYSSLGGNVSENAGGMRAAKYGITKDYVMALRAVLPSGEIIRAGKRTIKDVAGYNLAGILIASEGSLAVLSELTLKLIPLPKFKKTAFAIFPSVKSAMNAVYKSLASGVSPVSMEFLDNLSIRAVESKFNKGLPIEAGAILIADVDGNVKEAIDEDLRNLEHYFLEAGASEFKIAKDEQETADIWFARRNCSQSIAMYGTLKLNEDITVPRSKLPTLLEGIDEISKKYGFKIPCFGHTGDGNVHTNVMVPDKNDKEQVKKGYEAVEEIFKLTVKLGGTLSGEHGIGLSKAPFMNLAFSEAEMNLMRNIKKAFDPNNILNPFKMGLEGHHHHHH | soluble
MGSDKIHHHHHHMSKPAITLWSDAHFFSPYVLSAWVALQEKGLSFHIKTIDLDSGEHLQPTWQGYGQTRRVPLLQIDDFELSESSAIAEYLEDRFAPPTWERIYPLDLENRARARQIQAWLRSDLMPIREERPTDVVFAGAKKAPLTAEGKASAEKLFAMAEHLLVLGQPNLFGEWCIADTDLALMINRLVLHGDEVPERLVDYATFQWQRASVQRFIALSAKQSG | not soluble
IDIKDVELTADNGKPVYATFFCPKEEIKAAVVIAPALGVDKIFYQDFALWLASYGYLVTTFDYSSMGSADKVHYKESDTTITDWAVFDCKKILEQVSIEIKDKD | not soluble
MYSDLAGKVVVITGSATGLGRAMGVRFAKEKAKVVINYRSRESEAHDVLEEIKKVGGEAIAVKGDVTVESDVVNLIQSAVKEFGTLDVMINNAGIENAVPSHEMPLEDWNKVINTNLTGAFLGSREAIKYFVEHDIKGSIINMSSVHEKIPWPLFVHYAASKGGVKLMTETLAMEYAPKGIRVNNIGPGAINTPINAEKFADPKKRADVESMIPMGYIGKPEEIAAVATWLASSEASYVTGITLFADGGMTLYPSFQAGRG | not soluble
ISKETEEIDEQQVFIDSLSGHAQILYEKYHVLPSITIAQAILESDWGNSELAAKANNLFGVKGNYKGHHVTMETDEVEKGKRKTIRAKFRKYSTFFESMDDHAQLFVRGTSWNKKKYKPVLEAGNYKEAATALQTSGYATDPDYADKISAIVEKYDL | not soluble
MAVKKIAIFGATGQTGLTTLAQAVQAGYEVTVLVRDSSRLPSEGPRPAHVVVGDVLQAADVDKTVAGQDAVIVLLGTRNDLSPTTVMSEGARNIVAAMKAHGVDKVVACTSAFLLWDPTKVPPRLQAVTDDHIRMHKVLRESGLKYVAVMPPHIGDQPLTGAYTVTLDGRGPSRVISKHDLGHFMLRCLTTDEYDGHSTYPSHQYQ | soluble
MSELSDEEISLQALYDPSKKVIGDIEDGIFSTPELQPRIKTGIDNLQLVTKLVNQMRLFSSNEQIEDVPTNSLPYLLVPCFLGILHQNLMTEPGLKLDELRKSKIYMRNFLDRLRDLCLITTRLPWEDEDTEEQNLKEKPKLAVEEIRRLKLERHKKKQELKMAELRIQKQLEAVSIDEQNLRELYITQLLFWSERCYEELQAIDDELPLLKMMAERASHPHRHPAPPPATKTVPTLKPFIITRDAQQKQVFGLGYPGIPAMSVDEWYHQKFGHNPQNAPQSSAPAGAEAQESEEEVDDDEARAKAMRWDEYKDDHRRGWGNMHNKG | soluble
MKATLFVREFLLNPRTIGAILPSSDYLAEKMMASVCFEQAKYIIEYGPGTGVFTDKILRYRHPDTVVMIIEHNREFFCILNEKYQDEKNVIIINGSAEHIETYVKEHNIPFVDYIISGLPFASLPLHVSNAILNKARYLLGVKGKFITFQYTQTKVRLFTQFFNQMTVERVYRNLPPAFVFSCYNEKLEHHHHHH | soluble
MIRGEYLLRELNQNILLQSCQEFVKDYLDTICSFYLGKEVWYRFTELTNTEANCLVGTKEFFDEGHPLFGYRGTRRLLACLDEFQAEAHVVTEVYQTNPNLSVIFPFVNDADQLKQAITVLRQQGFTGKVGTMIELPSAYFDLSSILETGISKIVVGMNDLTSFVFATMRNSQWHDMESPIMLDMLRDMQDKARKNKIDFAVAGYLNTSFIQKMNQLGIKCIIHYSSIPEIFDLEIDHPDHLKHIKEESKKLQRSTHDTARNVE | soluble
MGSDKIHHHHHHMQELLCDRGKGRHADPMQNKPDTPPLSRFHQFRTADLDEARALVARNFCGHRLERQAREDAFDACQNRAGGNGLFYNYIRYGADVEIEPGELGSFYLIQVPIRGQALIRNGRTEVETGSAIASVLNPDRHTRMRWLAGCEQVLLQIDRNRLTAVAETLTGTALQSPVRFDPQIDRARPEMQRWLALFRRAVSAVDHGALLDPDQALSRALVEDELIAGFLRAQPSSIAPLLERPETGPLSPHVRRARDFMQAHLADPLTLSQIAAAAGTSPRNLQLGFSQLLEMTPLAYLRVLRLNYARYLLRESPPQVTIASIAGAAGFSHLGRFSAQYAARFGEGPSQTRKQHYLI | not soluble
MSLCDQKNDTLQGKQNNMTAFIKKIAASKESEETQRYVGNLNGIEIKLTYYYKGDIVLRQISEHKLLYKTLKANNKEEAQKMLSQVGEAYQGMPGLTERIDYYDSYATEYVDINFTQAKISDLCKLPGSSIDNCSAYYLSMIRSQKLLEESGYHRINEGHHHHHH | soluble
MKEKISEKEYKALIRKIGKEHFDGEKEEYGDGTVGVWTYELRKYKLKPPVKVKYVTQEQFQEYKDSNNQRLIKIETTLAAQGEQIRIQVEQIKELQIEQKAQGETLKLILQTLQKMSDRLDKMEVKMDKMEEKMDKMEGKIDKIENRMDKMEVKMDKMEKRIDKLESKLEHHHHHH | not soluble
CPVNWVEHERSCYWFSRSGKAWADADNYCRLEDAHLVVVTSWEEQKFVQHHIGPVNTWMGLHDQNGPWKWVDGTDYETGFKNWRPEQPDDWYGHGLGGGEDCAHFTDDGRWNDDVCQRPYRWVCETEL | soluble
MELTAFRHQVGGHFGILLCNGHVAKPSNLREMAFYKVMNSELKHFSPAFCKEVDVRATVNPSTGQIVVETLEKLDCHKKKSSSKHERSSTGFRQTTDGRVTVDTEKQWNPWAAGCQCKVVERMLKELEPTPFLLLENVVAHYTRPCVLDLKIGTRQHGDDASESKRHRQLMKCRHSTSATLGVRVVGMQLYEAETKSYSYVEKQEGRRIDAAGFRGYVKRFIKCCGRSRAARIRQKLSKLRSLLAEFEGYRFFSASILIAFDAEAADSSSDDAVKVCIIDFAHSTFSGFFEDLAYSGADEGCLLGLDSIVEAMEPIVSKDPVTPSSSFEKKK | not soluble
MPRYYEDKPEGGACAGVKEDLGACLLQSACVLQEGKSPRQCLKEGNCRALQYSFFECKRSMLDARSRFRGRKGY | not soluble
MTIQLINESSNTAKFQQICEKWQLVHDKSASLALVLTDTRLELRKLDEAKLGAIAVNFVDGTLAHRRKFGGGRGEAIAKAVGIKGNYLPSVIDATAGLGRDAFVLAAIGCKVTLVERHPVIAALLEDGLTRAYLDAEIGEFMQQRMQLANVHNIAQLDTTTQSADVVYLDPMYPHKQKSALVKKEMRVFQHLVGADLDADQFLLPAKALATKRVVVKRPDYAPPLAEQHPSFSQKTKNHRFDIYLSPLQKRLEHHHHHH | soluble
MAHHHHHHMSSESYAIGQEELVYDRMFRVMRTVGEMMRDRKYQVPSSIIPETVGQFCEQYVDREGRRIYRERMTVPCERVGGTHRSRAMVFFASELGMEGMKGYCQTAMDANCERVIIVTHGKVNATVKRYVDCINRSGTGQKVQLFDEDDLVVNITHHELVPKHTQLEDEEVKEMLEAHSLELNMLPRILSTDPVAAYLGLERGRVVRIERKSVSAGFYVTYRQVV | not soluble
MENQDYTVRLTVQASPQEVFKQINRVTAWWTKNLQGDSEKLNDVFTVNFPGMHVSTQKLIECIPDKKVTWMVTDSHLTFIQRKTEWTDTTIQFDISRNVKHTEVLFTHKGLNPAIECYGDCAKGWDYFIKGSLFKLLTEGTGTPELEHHHHHH | soluble
GSHMPSRRMLHTMIRVGDLDRSIKFYTERLGMKVLRKWDVPEDKYTLVFLGYGPEMSSTVLELTYNYGVTSYKHDEAYGHIAIGVEDVKELVADMRKHDVPIDYEDESGFMAFVVDPDGYYIELLNEKTMMEKAEADMKEQGTA | soluble
MYNDRHLSLFHLLFRAKIQRAINYFFMITFSEIQLLRGGKPLLEQASATIHPGDKVGLVGKNGCGKSTLFALLKDELTIDAGSFSKPAHWELAWVAQETPALDRTALEYVIDGDREYRELERQLMDAEAADNGTKVADLHGKIEMVGGYSIRARASELLDGLGFTQEQMSWSLTQFSGGWRMRLNLAQALICRSDLLLLDEPTNHLDLDAVMWLERWLQSYPGTLILISHDRDFLDPIVNRIVHIENQTLNEYTGNYSSFETQRAQKMLQQQAIYQKQQKQMAHMQSYIDRFRYKASKARQAQSRIKALERMEKVLPAQFDNPFSFEFREPAALPNPILMMDQVAAGYGDHLILEKIRLNLVPGSRIGLLGRNGAGKSTLIKLLSGELKPQSGDCTYSQGVKIGYFAQHQLETLHPEETPLQHMMQIAPDKNELELRNYLGSFGFHGEKALEKVAPFSGGEKARLVLALIVWQKPNLLLLDEPTNHLDLDMRQALTLALQSYEGAMVIVSHDRYLLRATTDDLYLVHDHQVGPFDGDLNDYYKWLTDQQKAERKETQPTNTANSANSAAAKKEQKRREADFRKLTAPIRKKLTQLEEKLDKLNHVVSEMEAQLSDTSLYEAQNKATLTEVLAKQAAAKSELEQVELEWMAEQETLEEMERKFNG | not soluble
MGSDKIHHHHHHMATKSLRRQDLEVHLGSTGQVVGRLYLGSGKRSAFSYDERWLRDARFFTLSPDLLPVLSVQHPQEVFFRALEDTAPDSWGERVIRRAHARLRQQDGETPPLEPVDFLMWVDDEARVGALRLFDPHAKVYLRSGATPGHVPPLVELDKVVQAARALEAGTETARDLQYLLGQGTSLGGARPKSSVRDTDGRLALGKFPSQADRRDVIRGEVLAMHLAAKAGIKVAAARVELIGGTAVAIIRRFDRTDDGGRIPYVSAATMLQSDGRDTVHAYTELVDVLLREGADPIADIHQLWRRLVLNFLICNTDDHLRNTGFLYDSRNHGWRLSPAFDLNPMPGDRRESKTWLTEDSGPIESRDMLMEGAPYFRLAAEEAAAIWTEVAQAVGSWRVVARGLGMQGTDLVDFEPAFA | not soluble
MIDRPDTGEGTNYLIVGSDSRAGMSAEEKKKLHTGSAEGKRTDSMMILHTGDNGSTLVSLPRDSDVEIPTFKGSTSGKTYPGTGRHVKLNAAYAEDGPELLVRTIEYNTGLHIDHYVEIGFAGFANIVDSVGGVEMTLDKGFKDTFSGADFKAGKQTLNGEQALAFVRTRHAFAASDLERTKNQQKFLSALAHQVATPSTVLNPFKLYPTLSSGLDTLIVDKDMGLFDLADMFWAMKGVTGGDGTSMNMPISGSSGGNLVWDKAKVKALVNELKNDEKVTVSGNLEHHHHHH | soluble
